From PMC4372375

Molecular target: pancreatic polypeptide (UniProt P01298)

B1: pancreatic polypeptide (peptide)
chain: APLEPVYPGDNATPEQMAQYAADLRRYINMLTRPRY
LDH release assay, % cell death of SH-SY5Y cells after 30 h with 10 μM PP oligomers formed with heparin (PP incubated without heparin: no significant LDH release): 35%
